Self-cleavage data for 32 variants are collected here from the RNAGym collection of RNA variant scans (doi:10.7554/elife.80360).

The chains are these.
B1: HDV Ribozyme (parent)
chain: GGCCGGCAUGGUCCCAGCCUCCUCGCUGGCGCCGGCUGGGCAACAUUCCGAGGGGACCGUCCCCUCGGUAAUGGCGAAUGGGACCCA

In the series the parent is B1. Kind of series: self-cleavage, relative activity (ratio to wild type); higher = more cleavage; co-transcriptional.
Take GGCCGGCAUGGUCCCAGCCUCCUCGCUGGCGCCGGCUGGGCAACGUUCCGAGGGGACCGUCCCCUCGGUAAUGGCGAAUUGGACCCA: the self-cleavage is 0.151.

Take GGCCGGCAUGGUCCCAGCCUCCUCGCUGGCGCCGGCUGGGCAACAUUCCGAGGGGACCUUCCGCUCGGUAAUGGCGAAUGGGACCCA: the self-cleavage stood at 0.767.

As for GGCCGGCAUGGUCCCAGCCUCCUCGCUGGCGCCGGCUGGGCAACAUCCCGAGGGGACCGUCCCCUCGGUAAUGGCGAAUGGGACCGA, the self-cleavage came out at 0.675.

As for GGCCGGCAUGGUCCCAGCCUCCUCGCUGGCGUCGGCUGGGCAACAUUCCGAGGGGAACGUCCCCUCGGUAAUGGCGAAUGGGACCCA, the self-cleavage came to 0.817.

GGCCGGCAUGGUCCCCGCCUCCUCGCUGGGGCCGGCUGGGCAACAUUCCGAGGGGACCGUCCCCUCGGUAAUGGCGAAUGGGACCCA: the self-cleavage is 0.128.

For GGCCGGCAUGGUCCCAGCCUCCUCGCUGGCGCCGGCUGGGCAACAUUCCGAAGGGACCGUCCCCUCGAUAAUGGCGAAUGGGACCCA, the self-cleavage is 0.788.

As to GGCCGGCAUGGUCCCCGCCUCCUCGCUGGCGCCGGCUGGGCAACAUUCCGAGGGGAUCGUCCCCUCGGUAAUGGCGAAUGGGACCCA, the self-cleavage is 0.719.

Consider GGCCGGCAUGGUCCCAGCCUCCUCGCUGGCGCCGGCUGGGCAACAAUCCGAGGGGACCGUCCCCUCGGUAAUGGCGAACGGGACCCA, for which the self-cleavage amounted to 0.215.

As for GGCCGGCAUGGUCCCAGCCUCGUCGCUGGCGCCGGCUGGGCAACAUUCCGAGGGGACCGUCCGCUCGGUAAUGGCGAAUGGGACCCA, the self-cleavage is 0.

Consider GACCGGCAUGGUCCCAGCCUCCUCGCUGGCGCCGGCUGGGCAACAUUCCGAGGGGACCGUCCCCUCGGUAAUGGCGAAUGGGACGCA, for which the self-cleavage was 0.217.

For the variant GGCCGGCAUGGUCCCAGCCUCCUCGCCGGCGCCGGCUGGGCAACAUUCCGACGGGACCGUCCCCUCGGUAAUGGCGAAUGGGACCCA, the self-cleavage turned out to be 0.764.

For the variant GGCCGGCAUGGUCCCAGCCUCCUCGCUGGCGCCGGCUGGGCAACAUUCCGAGGGGACCGUCCCCUCGGUAAUGUCGAAUGGGACCGA, the self-cleavage is 0.485.

For GGUCGGCAUGGUCCCAGCCUCCUCGCUGGCGCCGGCUGGGCAACAUUCCGAGGGGACCGUCCCCUCGGUAAUGGCGAAUGGUACCCA, the self-cleavage worked out at 0.332.

As to GGCCGGCAUGGUCCCAGCCUCCUCGCUGGCGCCGGCUGGGCAAAAUUCCGAGGGGACCGUCCCCUCGGUAAUGGCGAAGGGGACCCA, the self-cleavage is 0.128.

As to GGCCGGCAUGGUCCCAGCCUCCUCGCUGGCCCCGGCUGGGCAACAUUCCGAUGGGACCGUCCCCUCGGUAAUGGCGAAUGGGACCCA, the self-cleavage came to 0.391.

On to GGCCGACAUGGUCCCAGCCUCCUCGCUGGCGCCGGCUGGGCACCAUUCCGAGGGGACCGUCCCCUCGGUAAUGGCGAAUGGGACCCA, for which the self-cleavage is 0.0489.

On to GGCCGGCAUGGUCCCAGCCUACUCGCUGGCGCCGGCUGGGCAACAUUCCGAGGGGACCGUCCCCUCGGUAAUGGCGAAUGGGAGCCA, for which the self-cleavage was found to be 0.0314.

GGCCGGCAUGGUCCAAGCCUCCUCGCUGGCGCCGGCUGGGCAACAUUCCGAGGGGAUCGUCCCCUCGGUAAUGGCGAAUGGGACCCA: the self-cleavage was 0.8.

Take GGCCGGCAUGGUCCCAGCCUCCUCGCUGGCACCGGCUGGGCAACAUUCCGAGGGGAGCGUCCCCUCGGUAAUGGCGAAUGGGACCCA: the self-cleavage worked out at 0.529.

On to GUCCGGCAUGGCCCCAGCCUCCUCGCUGGCGCCGGCUGGGCAACAUUCCGAGGGGACCGUCCCCUCGGUAAUGGCGAAUGGGACCCA, for which the self-cleavage turned out to be 0.0241.

Turning to GGCCGGCAAGGUCCCAGCCUCCUCGCUGGCGCCGGCUGGGCAACAUUCCGAGGGGACCGUCCCCUCGGUAAUGGAGAAUGGGACCCA, the self-cleavage amounted to 0.0573.

As to GGCCGGCAUGGUCCCAGCCUCUUCGCUGGCGCCGGCUGGGCAACAUUCCGAGGGGACCGUCCCCUCGGUAAUGGCGAAUCGGACCCA, the self-cleavage amounted to 0.0712.

For GGCUGGCAUGGUCCCAGCCUCCUCGCUGGCGCCGGCUGGGCAACAUUCCGAGGGGACCGUCCCCUCGGGAAUGGCGAAUGGGACCCA, the self-cleavage was found to be 0.831.

GGCCGGCAUGGUCCCAGCUUCCUCGCUGGCGCCGGUUGGGCAACAUUCCGAGGGGACCGUCCCCUCGGUAAUGGCGAAUGGGACCCA: the self-cleavage was 0.0314.

For GGCCGGCAUGGUCCCAGCCUGCUCGCUGGCGCCGGCUGGGCCACAUUCCGAGGGGACCGUCCCCUCGGUAAUGGCGAAUGGGACCCA, the self-cleavage was 0.166.

Turning to GGCCGGCAGGGUCCCAGCCUCCUCGCUGGCGCCGGCUGGGCAACAUUCCGAGGGGACCGUCCCCUCGGUAAUGGCGAAUCGGACCCA, the self-cleavage was found to be 0.246.

GGCCGGCAUGGUCCCAGCCUCCUCGCUCGCGCCGGCUGGGCAACAUUCCGAGGGGACCGUCCCCUCCGUAAUGGCGAAUGGGACCCA: the self-cleavage came to 0.0923.

For GGCCGGCAUGGUCCCAGCCUCCUCGCUGGCGCCGCCUGGGCAACAUUCCGAGGGGACCGUCCCCUCGGCAAUGGCGAAUGGGACCCA, the self-cleavage was 0.291.

In the case of GGCCGGCAUGGUCCCAGCCUCCUCGCUGGAGCCGUCUGGGCAACAUUCCGAGGGGACCGUCCCCUCGGUAAUGGCGAAUGGGACCCA, the self-cleavage is 0.166.

In the case of GGCCGGCAUGGUCCCAGCCUCCUCGCUGGCGCCGGCUGGGCAACAUUCCGACGGGACCGUCCCCUCGGUAAUGGCAAAUGGGACCCA, the self-cleavage was 0.976.

As for GGCCGUCAUGGUCCCAGCCUCCUCGCUGGCGCCGGCUGGGCAACAUGCCGAGGGGACCGUCCCCUCGGUAAUGGCGAAUGGGACCCA, the self-cleavage was determined as 0.554.

GGCCGGCAUGGUCCCAGCCUCCUCACUGGCGCCGGCUGGGCAACAUUCCGAGGGGACCGUCCCCUCGGUAAUGGCGAAUGGGACCCU: the self-cleavage came out at 0.277.
